# Assay results from patent publication US8834920B2, “Liposome composition for targeting egfr receptor” (Alza Corporation, priority 2006, dated 2014).
# B1: 4316: P190-MMB construct with the longest linker, Flex GGGGS, n 4 (protein)
# chain: GGDPCTWEVWGRECLQGGGGSGGGGSGGGGSGGGGSCPPCPAPEAAGGPSVFLFPPKPKDTLMISRTPEVTCVVVDVSQEDPEVQFNWYVDGVEVHNAKTKPREEQFNSTYRVVSVLTVLHQDWLNGKEYKCKVSNKGLPSSIEKTISKAKGQPREPQVYTLPPSQEEMTKNQVSLTCLVKGFYPSDIAVEWESNGQPENNYKTTPPVLDSDGSFFLYSRLTVDKSRWQEGNVFSCSVMHEALHNHYTQKSLSLSLGK
# B2: 4315: P190-MMB construct, Flex GGGGS, n 2 (protein)
# chain: GGDPCTWEVWGRECLQGGGGSGGGGSCPPCPAPEAAGGPSVFLFPPKPKDTLMISRTPEVTCVVVDVSQEDPEVQFNWYVDGVEVHNAKTKPREEQFNSTYRVVSVLTVLHQDWLNGKEYKCKVSNKGLPSSIEKTISKAKGQPREPQVYTLPPSQEEMTKNQVSLTCLVKGFYPSDIAVEWESNGQPENNYKTTPPVLDSDGSFFLYSRLTVDKSRWQEGNVFSCSVMHEALHNHYTQKSLSLSLGK
# Columns and labels:
# A431 cells [1] = assay: Flow cytometry (FACS) of phage binding to A431 cells; assay type: cell-based, human
# Method: (§1) To evaluate whether the selected peptides from phage display can bind to tumor cells that overexpress EGFR, A431 cells (epidermoid cancer) or an EGFR negative tumor cells, MCF-7 (breast carcinoma) were tested in a flow cytometry assay using fluorescence detection (FACS). For P145, PP146 and their control phage, 2.5×10^5 A431 cells were resuspended in 25 μl of flow staining buffer (dPBS with 1% BSA, 0.09% sodium azide) and incubated with 25 μl of phage clones for 1 hour at 4° C.
# (§2) A431 cells (epidermoid cancer) which overexpress EGFR and EGFR-negative tumor cells, MCF-7 (breast carcinoma) were tested in a flow cytometry assay. Tumor cells (A431 and MCF-7) were harvested with 0.25% tyrpsin-EDTA and washed twice with FACS staining buffer (dPBS with 1% BSA, 0.09% sodium azide). […] After binding at 4° C., cells were washed twice with FACS staining buffer to remove unbound phage and then incubated with 0.5 μg of mouse anti-M13 monoclonal antibody conjugated to FITC (Fitzgerald Industries International, Inc. Concord, Mass.) for 1 hour at 4° C. Mouse anti-M13-FITC incubated with cells without phage was used as background binding. Cells were washed twice with FACS staining buffer to remove unbound detection antibody.
# MCF-7 = assay: Flow cytometry (FACS) of phage binding to MCF-7 cells; assay type: cell-based, human; conditions: EGFR overexpressing vs EGFR negative cells
# Method: as §1, §2
# EGF + sEGFR-MMB Complex = target: T1, EGF + sEGFR-MMB Complex (Homo sapiens, UniProt P00533); assay: Phage ELISA on complex of EGF and sEGFR-MMB; assay type: binding
# T1 construct: made in house
# Method: (§3) The plates were held overnight at room temperature, washed twice with TBST (0.5M Tris Base, 9% NaCl, 0.05% tween, pH 7.6), and loaded with 200 μL per well of Starting Block (Pierce). […] The plates were held at room temperature for 1.5 hours for blocking. Plates were then washed twice with TBST and phage were added. The phage solutions were crude phage supernatant from overnight cultures diluted four-fold with Starting Block. After a one-hour incubation, the plates were washed thrice with TBST and 100 μL of a 1:5000 dilution of phage binding antibody conjugate (α-M13-HRP) was added to the wells. EGF was added if applicable. After a one-hour incubation the plates were washed five times with TBST, 100 μL of POD (BM Chemiluminescence ELISA substrate; Roche Applied Science) was added, and chemiluminescene recorded.
# sEGFR-MMB [2] = target: T2, sEGFR-MMB (Homo sapiens, UniProt P00533); assay: Phage ELISA on coated sEGFR-MMB; assay type: binding; conditions: P190 phage, construct SEGFR-MMB
# T2 construct: made in house; host or cells: HEK 293E
# Method: (§4) The protein solution was removed and wells were rinsed twice with Tris-Buffered Saline containing 0.05% Tween-20 (TBS-T) using a plate washer (Embla). The wells were blocked with Starting Block in TBS for 1 hr at room temperature and rinsed twice with TBS-T. An equal volume of phage supernatant and Starting Block in TBS were incubated in the wells for 1 hr at room temperature, and the wells were rinsed five times with TBS-T. Anti-M13/horseradish peroxidase conjugate (Amersham), diluted 1:5000 in Starting Block in TBS, was added into the wells and incubated for 1 hour at room temperature, and then the wells were rinsed five times with TBS-T. Finally, chemiluminescent peroxidase substrate (Roche) was added to the wells, and chemiluminescence was measured on a Tecan plate reader.
# Phage were amplified in XL-1 Blue host cells and purified by precipitation with 6% polyethylene glycol-8000/0.5 M sodium chloride. The precipitated phage were resuspended in phosphate-buffered saline in a volume that was 1/100th the original culture volume. For competitive ELISA experiments, plates were prepared by coating wells with sEGFR-MMB or the Control-MMB followed by blocking as described above. […] The binding reaction was incubated for 1 hr at room temperature, and then bound phage were detected with anti-M13/HRP as above. […] Bound phage were washed and detected with anti-M13/HRP as described above. […]
# Control-MMB = Control-MMB (Homo sapiens, UniProt P01857); assay: Phage ELISA on Control-MMB; assay type: binding
# Method: as §4
# The plates were held overnight at room temperature, washed twice with TBST (0.5M Tris Base, 9% NaCl, 0.05% tween, pH 7.6), and loaded with 200 μL per well of Starting Block (Pierce). […] The plates were held at room temperature for 1.5 hours for blocking. Plates were then washed twice with TBST and phage were added. […] After a one-hour incubation the plates were washed five times with TBST, 100 μL of POD (BM Chemiluminescence ELISA substrate; Roche Applied Science) was added, and chemiluminescene recorded.
# sEGFR-His6 = target: T3, sEGFR-His6 (Homo sapiens, UniProt P00533); assay: Phage ELISA on coated sEGFR-His6; assay type: binding; conditions: P190 phage, construct sEGFR-His6
# T3 construct: made in house; host or cells: HEK293E (transient, secreted)
# Method: as §3
# EGFR = assay: FACE (Fast Activated Cell-based ELISA) of EGFR phosphorylation
# A431 cells [3] = assay: FACS of P190-MMB constructs or cetuximab on A431 cells; assay type: cell-based, human
# sEGFR-MMB [4] = target: T2, sEGFR-MMB; assay: P190-MMB constructs, solid phase binding (BIAcore, ELISA) to immobilized sEGFR-MMB
# Excerpt: In contrast, 190-MMB as the 4316 construct, binds EGFR and the presence of excess EGF promotes its binding.
molecule,measurement,setting,value
TLCRSFFHPLCYA (Random peptide) [Peptide P146],binding to A431 relative to positive control phage displaying EGF,A431 cells [1],weaker
SGCLDALWQCVY (Random peptide) [Peptide P174],binding to A431 compared to MCF-7,MCF-7,greater to A431 than to MCF-7
same,binding to A431 relative to positive control phage displaying EGF,A431 cells [1],comparable
KTCVSTTFDLWFVCFA (Random peptide) [Peptide P176],binding to A431 relative to positive control phage displaying EGF,A431 cells [1],comparable
DPCTWEVWGRECLQ [Peptide P190],Relative Signal,"EGF + sEGFR-MMB Complex; P190 phage, construct SEGFR-MMB + EGF",29408 ± 259
same,binding to dimeric EGFR in the presence of EGF or TGF-a,EGF + sEGFR-MMB Complex; phage ELISA,increased
same,binding to A431 compared to MCF-7,MCF-7,bound more effectively to A431 cells
same,Relative Signal,sEGFR-MMB [2],3937 ± 335
same,binding to A431 cells in the presence of EGF,A431 cells [1],increased
same,binding to A431 cells in the presence of EGF and cetuximab,A431 cells [1],decreases
same,binding to A431 tumor cells,"A431 cells [1]; anti-phage-FITC, 4° C.",bind
same,binding to Control-MMB,Control-MMB,fails to bind
same,Relative Signal,sEGFR-His6,6
VLCHRYYHPICYT [Peptide P145],binding to A431 compared to MCF-7,MCF-7,greater binding to A431 than MCF-7 cells
same,binding to A431 relative to positive control phage displaying EGF,A431 cells [1],weaker
B1,interference with EGF activation of EGFR,EGFR,nor interfere with EGF activation of EGFR
same,EGFR phosphorylation (receptor activation),EGFR; absence of EGF,did not induce EGFR phosphorylation
same,effect of EGF on binding to A431,A431 cells [3]; excess rhEGF,enhanced binding
same,on-rate,sEGFR-MMB [4],much more pronounced on-rate than the other constructs
same,binding rank among linker variants,sEGFR-MMB [4]; ELISA and FACS,best binder
B2,binding to A431,A431 cells [3],little binding
